Where two headings read alike, the source gives them in different places.

Experiment [1] addresses human recombinant wildtype neurofibromin isoform I (human) (UniProt P21359). Kind of experiment: cryo-EM structure.
Experiment [2] shares this target. Nature of the experiment: cryo-EM structure. This is another data set of the same source.

Usually stoichiometry N stands for a count of units in the complex or per binding partner. On to “human recombinant wildtype neurofibromin isoform I, P21359-2 1-2818”, for which the stoichiometry N came out at 2 in experiment [1] and 4 in experiment [2]. Further, the dimers per tetramer (counts of single particles) in experiment [2] was found to be 4.

Source of the values: doi:10.1101/2025.02.13.638105.
